{"source": "IntAct's records for PubMed 17762867", "parents": {"B1": {"name": "Adaptin ear-binding coat-associated protein 1 (Mus musculus), Q9CR95 (parent)", "chain": "MAAELEYESVLCVKPDVSVYRIPPRASNRGYRASDWKLDQPDWTGRLRITSKGKIAYIKLEDKVSGELFAQAPVEQYPGIAVETVTDSSRYFVIRIQDGTGRSAFIGIGFTDRGDAFDFNVSLQDHFKWVKQETEISKESQEMDNRPKLDLGFKEGQTIKLSIGNITAKKGGASKPRASGTGGLSLLPPPPGGKVTIPPPSSSVAISNHVTPPPIPKSNHGGNDSDILLDLDSPAPVSTSAPAPVSTSNDLWGDFSTASSSVPNQAPQPSNWVQF", "partner": "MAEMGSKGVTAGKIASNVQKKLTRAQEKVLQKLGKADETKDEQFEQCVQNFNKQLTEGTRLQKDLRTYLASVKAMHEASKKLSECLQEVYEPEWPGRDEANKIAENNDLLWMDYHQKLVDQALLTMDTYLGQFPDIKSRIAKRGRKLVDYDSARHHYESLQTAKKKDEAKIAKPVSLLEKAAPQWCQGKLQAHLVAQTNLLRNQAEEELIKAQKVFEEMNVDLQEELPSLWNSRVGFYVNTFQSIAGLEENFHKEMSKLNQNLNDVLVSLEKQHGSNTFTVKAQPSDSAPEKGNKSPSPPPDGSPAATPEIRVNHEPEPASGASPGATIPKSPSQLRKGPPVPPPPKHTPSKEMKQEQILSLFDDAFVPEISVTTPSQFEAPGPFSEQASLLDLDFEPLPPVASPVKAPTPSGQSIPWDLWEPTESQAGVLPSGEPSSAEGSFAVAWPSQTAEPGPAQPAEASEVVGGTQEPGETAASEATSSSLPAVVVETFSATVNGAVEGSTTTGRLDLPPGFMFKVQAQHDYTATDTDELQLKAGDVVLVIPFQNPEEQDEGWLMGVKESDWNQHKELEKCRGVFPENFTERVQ"}, "B2": {"name": "Adaptin ear-binding coat-associated protein 1 (Mus musculus), Q9CR95 (parent)", "chain": "B1 chain"}, "B3": {"name": "Adaptin ear-binding coat-associated protein 2 (Mus musculus), Q9D1J1 (parent)", "chain": "MEESEYESVLCVKPEVHVYRIPPRATNRGYRASEWQLDQPSWSGRLRITAKGKVAYIKLEDRTSGELFAQAPVDQFPGTAVESVTDSSRYFVIRIEDGNGRRAFIGLGFGDRGDAFDFNVALQDHFKWVKQQCEFAKQAQNPDEGPKLDLGFKDGQTIKINIANMRKKEGAAGTPRARPTSAGGLSLLPPPPGGKSSTVIPPSGEQLSVGGSLVQPAVVSGSGGATELWPQSKPAAAATADIWGDFTKSTGSPSSQSQPGTGWVQF", "partner": "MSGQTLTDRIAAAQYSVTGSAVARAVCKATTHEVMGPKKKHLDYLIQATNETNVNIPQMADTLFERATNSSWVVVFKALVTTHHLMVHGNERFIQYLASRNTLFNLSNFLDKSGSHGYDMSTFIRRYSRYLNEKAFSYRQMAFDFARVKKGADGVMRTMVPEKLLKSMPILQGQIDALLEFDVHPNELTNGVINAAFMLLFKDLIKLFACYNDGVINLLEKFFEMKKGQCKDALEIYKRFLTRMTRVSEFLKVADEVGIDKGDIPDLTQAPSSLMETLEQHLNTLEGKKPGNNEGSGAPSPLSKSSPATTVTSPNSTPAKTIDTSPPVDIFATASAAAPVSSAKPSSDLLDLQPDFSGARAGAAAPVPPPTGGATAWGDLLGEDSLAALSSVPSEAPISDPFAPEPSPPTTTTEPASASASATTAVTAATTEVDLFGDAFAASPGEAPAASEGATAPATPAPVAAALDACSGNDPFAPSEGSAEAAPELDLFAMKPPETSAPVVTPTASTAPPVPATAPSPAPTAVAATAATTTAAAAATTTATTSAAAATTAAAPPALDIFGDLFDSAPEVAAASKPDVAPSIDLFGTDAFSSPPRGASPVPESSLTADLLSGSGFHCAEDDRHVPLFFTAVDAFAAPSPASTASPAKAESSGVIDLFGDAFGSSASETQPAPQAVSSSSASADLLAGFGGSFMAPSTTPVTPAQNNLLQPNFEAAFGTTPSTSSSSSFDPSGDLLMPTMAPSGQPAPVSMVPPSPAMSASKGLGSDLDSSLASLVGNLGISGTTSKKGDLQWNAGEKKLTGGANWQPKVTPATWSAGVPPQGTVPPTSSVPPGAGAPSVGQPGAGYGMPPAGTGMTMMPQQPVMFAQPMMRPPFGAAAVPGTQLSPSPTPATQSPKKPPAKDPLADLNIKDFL"}, "B4": {"name": "Adaptin ear-binding coat-associated protein 2 (Mus musculus), Q9D1J1 (parent)", "chain": "B3 chain"}, "B5": {"name": "Adaptin ear-binding coat-associated protein 2 (Mus musculus), Q9D1J1 (parent)", "chain": "B3 chain", "partner": "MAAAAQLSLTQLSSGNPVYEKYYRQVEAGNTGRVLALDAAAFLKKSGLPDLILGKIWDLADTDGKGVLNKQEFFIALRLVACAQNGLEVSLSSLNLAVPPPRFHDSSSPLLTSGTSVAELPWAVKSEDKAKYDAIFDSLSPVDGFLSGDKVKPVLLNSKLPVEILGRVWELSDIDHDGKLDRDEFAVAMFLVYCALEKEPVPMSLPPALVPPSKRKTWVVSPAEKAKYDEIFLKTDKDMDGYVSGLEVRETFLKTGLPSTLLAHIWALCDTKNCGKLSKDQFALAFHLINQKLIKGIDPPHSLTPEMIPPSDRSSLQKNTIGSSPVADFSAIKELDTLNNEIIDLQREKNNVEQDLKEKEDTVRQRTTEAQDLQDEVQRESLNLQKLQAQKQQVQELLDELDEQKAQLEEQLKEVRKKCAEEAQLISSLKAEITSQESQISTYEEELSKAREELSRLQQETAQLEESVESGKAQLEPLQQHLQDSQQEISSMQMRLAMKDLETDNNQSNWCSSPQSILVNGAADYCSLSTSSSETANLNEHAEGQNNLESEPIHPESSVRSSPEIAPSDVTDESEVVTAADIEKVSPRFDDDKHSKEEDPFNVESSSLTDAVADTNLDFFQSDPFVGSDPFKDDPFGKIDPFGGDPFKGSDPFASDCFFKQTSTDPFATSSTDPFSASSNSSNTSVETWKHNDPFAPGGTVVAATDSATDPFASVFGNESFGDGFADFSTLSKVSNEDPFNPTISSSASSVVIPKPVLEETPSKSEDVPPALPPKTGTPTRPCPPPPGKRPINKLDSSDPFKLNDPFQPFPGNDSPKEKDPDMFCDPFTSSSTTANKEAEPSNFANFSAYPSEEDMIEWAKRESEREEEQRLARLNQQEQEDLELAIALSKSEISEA"}}}
{"variants_of": "B1", "settings": "with bin1_rat Bin1, O08839"}
{"variant": "MAAELEYESVLCVKPDVSVYAIPPRASNRGYRASDWKLDQPDWTGRLRITSKGKIAYIKLEDKVSGELFAQAPVEQYPGIAVETVTDSSRYFVIRIQDGTGRSAFIGIGFTDRGDAFDFNVSLQDHFKWVKQETEISKESQEMDNRPKLDLGFKEGQTIKLSIGNITAKKGGASKPRASGTGGLSLLPPPPGGKVTIPPPSSSVAISNHVTPPPIPKSNHGGNDSDILLDLDSPAPVSTSAPAPVSTSNDLWGDFSTASSSVPNQAPQPSNWVQF", "note": "[R21A]", "effect of a mutation on the interaction": "disrupting interaction"}
{"variant": "MAAELEYESVLCVKPDVSVYRIPPRASNRGYRASDWKLDQPDWTGRLRITSKGKIAYIKLEDKVSGELFAQAPVEQYPGIAVETVTDSSRYFVIRIQDGTGASAFIGIGFTDRGDAFDFNVSLQDHFKWVKQETEISKESQEMDNRPKLDLGFKEGQTIKLSIGNITAKKGGASKPRASGTGGLSLLPPPPGGKVTIPPPSSSVAISNHVTPPPIPKSNHGGNDSDILLDLDSPAPVSTSAPAPVSTSNDLWGDFSTASSSVPNQAPQPSNWVQF", "note": "[R102A]", "effect of a mutation on the interaction": "disrupting interaction"}
{"variants_of": "B2", "settings": "with Synj1, Q62910-1"}
{"variant": "MAAELEYESVLCVKPDVSVYAIPPRASNRGYRASDWKLDQPDWTGRLRITSKGKIAYIKLEDKVSGELFAQAPVEQYPGIAVETVTDSSRYFVIRIQDGTGRSAFIGIGFTDRGDAFDFNVSLQDHFKWVKQETEISKESQEMDNRPKLDLGFKEGQTIKLSIGNITAKKGGASKPRASGTGGLSLLPPPPGGKVTIPPPSSSVAISNHVTPPPIPKSNHGGNDSDILLDLDSPAPVSTSAPAPVSTSNDLWGDFSTASSSVPNQAPQPSNWVQF", "note": "[R21A]", "effect of a mutation on the interaction": "decreasing interaction"}
{"variant": "MAAELEYESVLCVKPDVSVYRIPPRASNRGYRASDWKLDQPDWTGRLRITSKGKIAYIKLEDKVSGELFAQAPVEQYPGIAVETVTDSSRYFVIRIQDGTGASAFIGIGFTDRGDAFDFNVSLQDHFKWVKQETEISKESQEMDNRPKLDLGFKEGQTIKLSIGNITAKKGGASKPRASGTGGLSLLPPPPGGKVTIPPPSSSVAISNHVTPPPIPKSNHGGNDSDILLDLDSPAPVSTSAPAPVSTSNDLWGDFSTASSSVPNQAPQPSNWVQF", "note": "[R102A]", "effect of a mutation on the interaction": "disrupting interaction"}
{"variants_of": "B3", "settings": "with ap180_rat Snap91, Q05140"}
{"variant": "MEESEYESVLCVKPEVHVYRIPPRATNRGYRASEWQLDQPAWSGRLRITAKGKVAYIKLEDRTSGELFAQAPVDQFPGTAVESVTDSSRYFVIRIEDGNGRRAFIGLGFGDRGDAFDFNVALQDHFKWVKQQCEFAKQAQNPDEGPKLDLGFKDGQTIKINIANMRKKEGAAGTPRARPTSAGGLSLLPPPPGGKSSTVIPPSGEQLSVGGSLVQPAVVSGSGGATELWPQSKPAAAATADIWGDFTKSTGSPSSQSQPGTGWVQF", "note": "[S41A]", "effect of a mutation on the interaction": "increasing interaction"}
{"variant": "MEESEYESVLCVKPEVHVYAIPPRATNRGYRASEWQLDQPSWSGRLRITAKGKVAYIKLEDRTSGELFAQAPVDQFPGTAVESVTDSSRYFVIRIEDGNGRRAFIGLGFGDRGDAFDFNVALQDHFKWVKQQCEFAKQAQNPDEGPKLDLGFKDGQTIKINIANMRKKEGAAGTPRARPTSAGGLSLLPPPPGGKSSTVIPPSGEQLSVGGSLVQPAVVSGSGGATELWPQSKPAAAATADIWGDFTKSTGSPSSQSQPGTGWVQF", "note": "[R20A]", "effect of a mutation on the interaction": "disrupting interaction"}
{"variant": "MEESEYESVLCVKPEVHVYRIPPRATNRGYRASEWQLDQPSWSGRLRITAKGKVAYIKLEDRTSGELFAQAPVDQFPGTAVESVTDSSRYFVIRIEDGNGARAFIGLGFGDRGDAFDFNVALQDHFKWVKQQCEFAKQAQNPDEGPKLDLGFKDGQTIKINIANMRKKEGAAGTPRARPTSAGGLSLLPPPPGGKSSTVIPPSGEQLSVGGSLVQPAVVSGSGGATELWPQSKPAAAATADIWGDFTKSTGSPSSQSQPGTGWVQF", "note": "[R101A]", "effect of a mutation on the interaction": "disrupting interaction"}
{"variants_of": "B4", "settings": "with Synj1, Q62910-1"}
{"variant": "MEESEYESVLCVKPEVHVYAIPPRATNRGYRASEWQLDQPSWSGRLRITAKGKVAYIKLEDRTSGELFAQAPVDQFPGTAVESVTDSSRYFVIRIEDGNGRRAFIGLGFGDRGDAFDFNVALQDHFKWVKQQCEFAKQAQNPDEGPKLDLGFKDGQTIKINIANMRKKEGAAGTPRARPTSAGGLSLLPPPPGGKSSTVIPPSGEQLSVGGSLVQPAVVSGSGGATELWPQSKPAAAATADIWGDFTKSTGSPSSQSQPGTGWVQF", "note": "[R20A]", "effect of a mutation on the interaction": "decreasing interaction"}
{"variant": "MEESEYESVLCVKPEVHVYRIPPRATNRGYRASEWQLDQPSWSGRLRITAKGKVAYIKLEDRTSGELFAQAPVDQFPGTAVESVTDSSRYFVIRIEDGNGARAFIGLGFGDRGDAFDFNVALQDHFKWVKQQCEFAKQAQNPDEGPKLDLGFKDGQTIKINIANMRKKEGAAGTPRARPTSAGGLSLLPPPPGGKSSTVIPPSGEQLSVGGSLVQPAVVSGSGGATELWPQSKPAAAATADIWGDFTKSTGSPSSQSQPGTGWVQF", "note": "[R101A]", "effect of a mutation on the interaction": "disrupting interaction"}
{"variants_of": "B4", "settings": "with epn1_rat Epn1, O88339"}
{"variant": "MEESEYESVLCVKPEVHVYRIPPRATNRGYRASEWQLDQPSWSGRLRITAKGKVAYIKLEDRTSGELFAQAPVDQFPGTAVESVTDSSRYFVIRIEDGNGARAFIGLGFGDRGDAFDFNVALQDHFKWVKQQCEFAKQAQNPDEGPKLDLGFKDGQTIKINIANMRKKEGAAGTPRARPTSAGGLSLLPPPPGGKSSTVIPPSGEQLSVGGSLVQPAVVSGSGGATELWPQSKPAAAATADIWGDFTKSTGSPSSQSQPGTGWVQF", "note": "[R101A]", "effect of a mutation on the interaction": "disrupting interaction"}
{"variants_of": "B5", "settings": "with Eps15, A7BFV9"}
{"variant": "MEESEYESVLCVKPEVHVYAIPPRATNRGYRASEWQLDQPSWSGRLRITAKGKVAYIKLEDRTSGELFAQAPVDQFPGTAVESVTDSSRYFVIRIEDGNGRRAFIGLGFGDRGDAFDFNVALQDHFKWVKQQCEFAKQAQNPDEGPKLDLGFKDGQTIKINIANMRKKEGAAGTPRARPTSAGGLSLLPPPPGGKSSTVIPPSGEQLSVGGSLVQPAVVSGSGGATELWPQSKPAAAATADIWGDFTKSTGSPSSQSQPGTGWVQF", "note": "[R20A]", "effect of a mutation on the interaction": "disrupting interaction"}
{"variant": "MEESEYESVLCVKPEVHVYRIPPRATNRGYRASEWQLDQPSWSGRLRITAKGKVAYIKLEDRTSGELFAQAPVDQFPGTAVESVTDSSRYFVIRIEDGNGARAFIGLGFGDRGDAFDFNVALQDHFKWVKQQCEFAKQAQNPDEGPKLDLGFKDGQTIKINIANMRKKEGAAGTPRARPTSAGGLSLLPPPPGGKSSTVIPPSGEQLSVGGSLVQPAVVSGSGGATELWPQSKPAAAATADIWGDFTKSTGSPSSQSQPGTGWVQF", "note": "[R101A]", "effect of a mutation on the interaction": "disrupting interaction"}
